{"source": "patent US20230407373A1", "about": "(priority 2020, published 2023)", "molecules": {"B1": {"name": "ZC3HAV1: host protein, UniProt Q7Z2W4 (protein, UniProt Q7Z2W4 2-902, looked up)", "Zinc finger CCCH-type …": "ADPEVCCFITKILCAHGGRMALDALLQEIALSEPQLCEVLQVAGPDRFVVLETGGEAGITRSVVATTRARVCRRKYCQRPCDNLHLCKLNLLGRCNYSQSERNLCKYSHEVLSEENFKVLKNHELSGLNKEELAVLLLQSDPFFMPEICKSYKGEGRQQICNQQPPCSRLHICDHFTRGNCRFPNCLRSHNLMDRKVLAIMREHGLNPDVVQNIQDICNSKHMQKNPPGPRAPSSHRRNMAYRARSKSRDRFFQGSQEFLASASASAERSCTPSPDQISHRASLEDAPVDDLTRKFTYLGSQDRARPPSGSSKATDLGGTSQAGTSQRFLENGSQEDLLHGNPGSTYLASNSTSAPNWKSLTSWTNDQGARRKTVFSPTLPAARSSLGSLQTPEAVTTRKGTGLLSSDYRIINGKSGTQDIQPGPLFNNNADGVATDITSTRSLNYKSTSSGHREISSPRIQDAGPASRDVQATGRIADDADPRVALVNDSLSDVTSTTSSRVDDHDSEEICLDHLCKGCPLNGSCSKVHFHLPYRWQMLIGKTWTDFEHMETIEKGYCNPGIHLCSVGSYTINFRVMSCDSFPIRRLSTPSSVTKPANSVFTTKWIWYWKNESGTWIQYGEEKDKRKNSNVDSSYLESLYQSCPRGVVPFQAGSRNYELSFQGMIQTNIASKTQKDVIRRPTFVPQWYVQQMKRGPDHQPAKTSSVSLTATFRPQEDFCFLSSKKYKLSEIHHLHPEYVRVSEHFKASMKNFKIEKIKKIENSELLDKFTWKKSQMKEEGKLLFYATSRAYVESICSNNFDSFLHETHENKYGKGIYFAKDAIYSHKNCPYDAKNVVMFVAQVLVGKFTEGNITYTSPPPQFDSCVDTRSNPSVFVIFQKDQVYPQYVIEYTEDKACVIS"}, "B2": {"name": "CELF1: host protein, UniProt Q92879 (protein, UniProt Q92879 1-486, looked up)", "CUGBP Elav-like family member …": "MNGTLDHPDQPDLDAIKMFVGQVPRTWSEKDLRELFEQYGAVYEINVLRDRSQNPPQSKGCCFVTFYTRKAALEAQNALHNMKVLPGMHHPIQMKPADSEKNNAVEDRKLFIGMISKKCTENDIRVMFSSFGQIEECRILRGPDGLSRGCAFVTFTTRAMAQTAIKAMHQAQTMEGCSSPMVVKFADTQKDKEQKRMAQQLQQQMQQISAASVWGNLAGLNTLGPQYLALYLQLLQQTASSGNLNTLSSLHPMGGLNAMQLQNLAALAAAASAAQNTPSGTNALTTSSSPLSVLTSSGSSPSSSSSNSVNPIASLGALQTLAGATAGLNVGSLAGMAALNGGLGSSGLSNGTGSTMEALTQAYSGIQQYAAAALPTLYNQNLLTQQSIGAAGSQKEGPEGANLFIYHLPQEFGDQDLLQMFMPFGNVVSAKVFIDKQTNLSKCFGFVSYDNPVSAQAAIQSMNGFQIGMKRLKVQLKRSKNDSKPY"}}, "key": {"SARS-CoV-2 gRNA": {"system": "SARS-CoV-2 gRNA", "format": "binding"}, "[1]": {"system": "SARS-CoV-2 gRNA and sgRNAs", "format": "binding", "conditions": "for target (unweighted spectral count in RNP capture): Probe II capture, LC-MS/MS LFQ; for background (unweighted spectral count in control): no-probe control pull-down, used as background for Probe II"}, "SARS-CoV-2": {"system": "SARS-CoV-2", "format": "cell-based", "conditions": "for change in viral RNA levels (gRNA, N sgRNA) after siRNA depletion: Calu-3 cells, 50 nM siRNA, RT-qPCR, relative to siNC"}, "gRNA of HCoV-OC43": {"system": "gRNA of HCoV-OC43", "format": "binding", "conditions": "for target (spectral count, OC43 Probe I RNP capture) / background (spectral count, no-probe control): type n_48_v: 48 hours post-infection; for target (spectral count, OC43 Probe I RNP capture): infected cells, unweighted spectral count; for background (spectral count, no-probe control): no-probe control on infected cells"}, "HCoV-OC43 gRNA and sgRNA": {"system": "HCoV-OC43 gRNA and sgRNA", "format": "binding", "conditions": "for target (unweighted spectral count, OC43 Probe II capture) / target (spectral count) / background (spectral count): 36 hpi; for target (unweighted spectral count, OC43 Probe II capture): type n_36_v, FDR<10%; for target (unweighted spectral count, OC43 Probe II capture) / target (unweighted spectral count): tested against no-probe control; for target (unweighted spectral count): OC43 Probe II, infected cells; for target (unweighted spectral count, OC43 Probe II) / background (unweighted spectral count, no-probe control): type n_48_v, 48 hpi; for target (unweighted spectral count, OC43 Probe II): OC43 Probe II capture on infected cells; for background (unweighted spectral count, no-probe control): no-probe control on infected cells; for target (spectral count) / background (spectral count): type s_36_m, Probe II; for target (spectral count): HCoV-OC43-infected HCT-8 cells; for background (spectral count): uninfected-probe control"}}, "note": "“Also recorded” adds a separate entry of the source. Read-outs that look alike come from different tables or passages of the source.", "data": [{"molecule": "B1", "values": [{"measurement": "enrichment in SARS-CoV-2 Probe I RNP capture", "setting": "SARS-CoV-2 gRNA", "value": "enriched; also recorded: found in the SARS-CoV-2 experiments"}, {"measurement": "target (unweighted spectral count of the protein in the RNP capture)", "setting": "SARS-CoV-2 gRNA; […], LC-MS/MS, Probe I sample (first 199 lines of Table 2)", "value": 31}, {"measurement": "enrichment in SARS-CoV-2 Probe II RNP capture", "setting": "[1]", "value": "enriched; also recorded: found in the SARS-CoV-2 experiments"}, {"measurement": "target (unweighted spectral count in RNP capture)", "setting": "[1]", "value": 48}, {"measurement": "background (unweighted spectral count in control)", "setting": "[1]", "value": 1}, {"measurement": "antiviral or proviral role of the host protein indicated by knockdown", "setting": "SARS-CoV-2", "value": "may act as antiviral factors"}, {"measurement": "change in viral RNA levels (gRNA, N sgRNA) after siRNA depletion", "setting": "SARS-CoV-2", "value": "increased viral RNAs"}, {"measurement": "target (spectral count, OC43 Probe I RNP capture)", "setting": "gRNA of HCoV-OC43", "value": 17}, {"measurement": "background (spectral count, no-probe control)", "setting": "gRNA of HCoV-OC43", "value": 1}, {"measurement": "target (unweighted spectral count, OC43 Probe II capture)", "setting": "HCoV-OC43 gRNA and sgRNA", "value": 18}, {"measurement": "target (unweighted spectral count)", "setting": "HCoV-OC43 gRNA and sgRNA; 12 hpi (type n_12_v)", "value": 8}, {"measurement": "target (unweighted spectral count)", "setting": "HCoV-OC43 gRNA and sgRNA; 24 hpi (type n_24_v)", "value": 13}, {"measurement": "target (unweighted spectral count, OC43 Probe II)", "setting": "HCoV-OC43 gRNA and sgRNA", "value": 22}, {"measurement": "background (unweighted spectral count, no-probe control)", "setting": "HCoV-OC43 gRNA and sgRNA", "value": 1}, {"measurement": "target (spectral count)", "setting": "HCoV-OC43 gRNA and sgRNA", "value": 18}, {"measurement": "background (spectral count)", "setting": "HCoV-OC43 gRNA and sgRNA", "value": 1}]}, {"molecule": "B2", "values": [{"measurement": "enrichment in SARS-CoV-2 Probe I RNP capture", "setting": "SARS-CoV-2 gRNA", "value": "found in the SARS-CoV-2 experiments"}, {"measurement": "enrichment in SARS-CoV-2 Probe II RNP capture", "setting": "[1]", "value": "found in the SARS-CoV-2 experiments"}, {"measurement": "target (unweighted spectral count in RNP capture)", "setting": "[1]", "value": 25}, {"measurement": "background (unweighted spectral count in control)", "setting": "[1]", "value": 1}, {"measurement": "change in viral RNA levels (gRNA, N sgRNA) after siRNA depletion", "setting": "SARS-CoV-2", "value": "increased viral RNAs; also recorded: only modest"}, {"measurement": "target (spectral count)", "setting": "gRNA of HCoV-OC43; type g_36_m, HCoV-OC43-infected HCT-8 cells, 36 hpi, Probe I", "value": 15}, {"measurement": "background (spectral count)", "setting": "gRNA of HCoV-OC43; type g_36_m, uninfected-probe control, 36 hpi, Probe I", "value": 1}, {"measurement": "target (spectral count, OC43 Probe I RNP capture)", "setting": "gRNA of HCoV-OC43", "value": 16}, {"measurement": "background (spectral count, no-probe control)", "setting": "gRNA of HCoV-OC43", "value": 1}, {"measurement": "target (unweighted spectral count, OC43 Probe II capture)", "setting": "HCoV-OC43 gRNA and sgRNA", "value": 14}, {"measurement": "target (unweighted spectral count)", "setting": "HCoV-OC43 gRNA and sgRNA; 24 hpi (type n_24_v)", "value": 6}, {"measurement": "target (unweighted spectral count, OC43 Probe II)", "setting": "HCoV-OC43 gRNA and sgRNA", "value": 14}, {"measurement": "background (unweighted spectral count, no-probe control)", "setting": "HCoV-OC43 gRNA and sgRNA", "value": 1}, {"measurement": "target (spectral count)", "setting": "HCoV-OC43 gRNA and sgRNA", "value": 14}, {"measurement": "background (spectral count)", "setting": "HCoV-OC43 gRNA and sgRNA", "value": 1}]}]}
